In patent US20160272683A1 (Novo Nordisk, published 2016):
Numbered stars: 1 amine (or outer) side, 2 acyl side, 3 side chain; on linkers, the order of the positions; unused ones are H or OH. * marks the point of attachment. C20 diacid = O=C(O)CCCCCCCCCCCCCCCCCCC(=O)*; C18 diacid = O=C(O)CCCCCCCCCCCCCCCCC(=O)*; γGlu = O=C(O)[C@H](CCC(=O)[*:2])N[*:1]; AEEA = NCCOCCOCC(=O)O

T1: human amylin 3(a) receptor (human calcitonin receptor co-expressed with RAMP-3) on BHK570/CRE-luc cells (human, UniProt P30988 25-474; O60896 24-148)
T1 sequence (looked up) 1: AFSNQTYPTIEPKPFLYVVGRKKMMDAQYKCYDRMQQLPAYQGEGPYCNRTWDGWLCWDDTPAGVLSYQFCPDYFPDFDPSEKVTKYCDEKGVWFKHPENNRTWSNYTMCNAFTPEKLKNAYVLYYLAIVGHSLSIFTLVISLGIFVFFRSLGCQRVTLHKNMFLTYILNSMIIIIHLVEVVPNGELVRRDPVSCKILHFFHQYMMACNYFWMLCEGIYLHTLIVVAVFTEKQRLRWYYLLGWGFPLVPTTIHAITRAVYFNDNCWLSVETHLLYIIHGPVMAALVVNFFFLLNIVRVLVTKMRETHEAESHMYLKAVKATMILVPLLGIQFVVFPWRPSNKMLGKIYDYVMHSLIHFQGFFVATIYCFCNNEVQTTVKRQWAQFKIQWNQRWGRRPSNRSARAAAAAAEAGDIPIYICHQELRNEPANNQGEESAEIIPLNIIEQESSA
T1 sequence (looked up) 2: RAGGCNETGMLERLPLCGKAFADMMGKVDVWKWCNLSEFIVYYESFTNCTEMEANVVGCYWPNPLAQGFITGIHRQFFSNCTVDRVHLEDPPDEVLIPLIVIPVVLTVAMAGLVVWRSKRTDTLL

T2: human calcitonin receptor on BHK570/CRE-luc cells (human, UniProt P30988 25-474)
T2 sequence (looked up): T1 sequence (looked up) 1

B1: [N-terminal(C20 diacid-gGlu-2xOEG), des1, 4G, 9V, 15Q, 21Q, 23Y, 30S, 31G, 32T, 33Y]mimylin (peptide)
peptide: {C20 diacid-γGlu-AEEA-AEEA}-ASGLSTAVLGRLSQELHELQTYPRTETGSGTY-NH2
SMILES: CC(C)C[C@H](NC(=O)CNC(=O)[C@H](CO)NC(=O)[C@H](C)NC(=O)COCCOCCNC(=O)COCCOCCNC(=O)CC[C@H](NC(=O)CCCCCCCCCCCCCCCCCCC(=O)O)C(=O)O)C(=O)N[C@@H](CO)C(=O)N[C@H](C(=O)N[C@@H](C)C(=O)N[C@H](C(=O)N[C@@H](CC(C)C)C(=O)NCC(=O)N[C@@H](CCCNC(=N)N)C(=O)N[C@@H](CC(C)C)C(=O)N[C@@H](CO)C(=O)N[C@@H](CCC(N)=O)C(=O)N[C@@H](CCC(=O)O)C(=O)N[C@@H](CC(C)C)C(=O)N[C@@H](Cc1c[nH]cn1)C(=O)N[C@@H](CCC(=O)O)C(=O)N[C@@H](CC(C)C)C(=O)N[C@@H](CCC(N)=O)C(=O)N[C@H](C(=O)N[C@@H](Cc1ccc(O)cc1)C(=O)N1CCC[C@H]1C(=O)N[C@@H](CCCNC(=N)N)C(=O)N[C@H](C(=O)N[C@@H](CCC(=O)O)C(=O)N[C@H](C(=O)NCC(=O)N[C@@H](CO)C(=O)NCC(=O)N[C@H](C(=O)N[C@@H](Cc1ccc(O)cc1)C(N)=O)[C@@H](C)O)[C@@H](C)O)[C@@H](C)O)[C@@H](C)O)C(C)C)[C@@H](C)O
B2: [N-terminal(C18 diacid-gGlu-2xOEG), des1, 4G, 9V, 15Q, 21Q, 23Y, 30S, 31G, 32T, 33Y]mimylin (peptide)
peptide: {C18 diacid-γGlu-AEEA-AEEA}-ASGLSTAVLGRLSQELHELQTYPRTETGSGTY-NH2
SMILES: CC(C)C[C@H](NC(=O)CNC(=O)[C@H](CO)NC(=O)[C@H](C)NC(=O)COCCOCCNC(=O)COCCOCCNC(=O)CC[C@H](NC(=O)CCCCCCCCCCCCCCCCC(=O)O)C(=O)O)C(=O)N[C@@H](CO)C(=O)N[C@H](C(=O)N[C@@H](C)C(=O)N[C@H](C(=O)N[C@@H](CC(C)C)C(=O)NCC(=O)N[C@@H](CCCNC(=N)N)C(=O)N[C@@H](CC(C)C)C(=O)N[C@@H](CO)C(=O)N[C@@H](CCC(N)=O)C(=O)N[C@@H](CCC(=O)O)C(=O)N[C@@H](CC(C)C)C(=O)N[C@@H](Cc1c[nH]cn1)C(=O)N[C@@H](CCC(=O)O)C(=O)N[C@@H](CC(C)C)C(=O)N[C@@H](CCC(N)=O)C(=O)N[C@H](C(=O)N[C@@H](Cc1ccc(O)cc1)C(=O)N1CCC[C@H]1C(=O)N[C@@H](CCCNC(=N)N)C(=O)N[C@H](C(=O)N[C@@H](CCC(=O)O)C(=O)N[C@H](C(=O)NCC(=O)N[C@@H](CO)C(=O)NCC(=O)N[C@H](C(=O)N[C@@H](Cc1ccc(O)cc1)C(N)=O)[C@@H](C)O)[C@@H](C)O)[C@@H](C)O)[C@@H](C)O)C(C)C)[C@@H](C)O
B3: [N-terminal(C20 diacid-gGlu), des1, 4G, 9V, 15Q, 21Q, 23Y, 30S, 31A, 32T, 33Y]mimylin (peptide)
peptide: {C20 diacid-γGlu}-ASGLSTAVLGRLSQELHELQTYPRTETGSATY-NH2
SMILES: CC(C)C[C@H](NC(=O)CNC(=O)[C@H](CO)NC(=O)[C@H](C)NC(=O)CC[C@H](NC(=O)CCCCCCCCCCCCCCCCCCC(=O)O)C(=O)O)C(=O)N[C@@H](CO)C(=O)N[C@H](C(=O)N[C@@H](C)C(=O)N[C@H](C(=O)N[C@@H](CC(C)C)C(=O)NCC(=O)N[C@@H](CCCNC(=N)N)C(=O)N[C@@H](CC(C)C)C(=O)N[C@@H](CO)C(=O)N[C@@H](CCC(N)=O)C(=O)N[C@@H](CCC(=O)O)C(=O)N[C@@H](CC(C)C)C(=O)N[C@@H](Cc1c[nH]cn1)C(=O)N[C@@H](CCC(=O)O)C(=O)N[C@@H](CC(C)C)C(=O)N[C@@H](CCC(N)=O)C(=O)N[C@H](C(=O)N[C@@H](Cc1ccc(O)cc1)C(=O)N1CCC[C@H]1C(=O)N[C@@H](CCCNC(=N)N)C(=O)N[C@H](C(=O)N[C@@H](CCC(=O)O)C(=O)N[C@H](C(=O)NCC(=O)N[C@@H](CO)C(=O)N[C@@H](C)C(=O)N[C@H](C(=O)N[C@@H](Cc1ccc(O)cc1)C(N)=O)[C@@H](C)O)[C@@H](C)O)[C@@H](C)O)[C@@H](C)O)C(C)C)[C@@H](C)O
B4: [N-terminal(C20 diacid-gGlu), des1, 2L, 4G, 9V, 21S, 23Y, 30S, 31G, 32T, 33Y]mimylin (peptide)
peptide: {C20 diacid-γGlu}-LSGLSTAVLGRLSAELHELSTYPRTETGSGTY-NH2
SMILES: CC(C)C[C@H](NC(=O)CC[C@H](NC(=O)CCCCCCCCCCCCCCCCCCC(=O)O)C(=O)O)C(=O)N[C@@H](CO)C(=O)NCC(=O)N[C@@H](CC(C)C)C(=O)N[C@@H](CO)C(=O)N[C@H](C(=O)N[C@@H](C)C(=O)N[C@H](C(=O)N[C@@H](CC(C)C)C(=O)NCC(=O)N[C@@H](CCCNC(=N)N)C(=O)N[C@@H](CC(C)C)C(=O)N[C@@H](CO)C(=O)N[C@@H](C)C(=O)N[C@@H](CCC(=O)O)C(=O)N[C@@H](CC(C)C)C(=O)N[C@@H](Cc1c[nH]cn1)C(=O)N[C@@H](CCC(=O)O)C(=O)N[C@@H](CC(C)C)C(=O)N[C@@H](CO)C(=O)N[C@H](C(=O)N[C@@H](Cc1ccc(O)cc1)C(=O)N1CCC[C@H]1C(=O)N[C@@H](CCCNC(=N)N)C(=O)N[C@H](C(=O)N[C@@H](CCC(=O)O)C(=O)N[C@H](C(=O)NCC(=O)N[C@@H](CO)C(=O)NCC(=O)N[C@H](C(=O)N[C@@H](Cc1ccc(O)cc1)C(N)=O)[C@@H](C)O)[C@@H](C)O)[C@@H](C)O)[C@@H](C)O)C(C)C)[C@@H](C)O
B5: [N-terminal(C20 diacid-gGlu), des1, 4G, 9V, 15Q, 21Q, 23Y, 25P, 30S, 31Q, 32T, 33Y]mimylin (peptide)
peptide: {C20 diacid-γGlu}-ASGLSTAVLGRLSQELHELQTYPPTETGSQTY-NH2
SMILES: CC(C)C[C@H](NC(=O)CNC(=O)[C@H](CO)NC(=O)[C@H](C)NC(=O)CC[C@H](NC(=O)CCCCCCCCCCCCCCCCCCC(=O)O)C(=O)O)C(=O)N[C@@H](CO)C(=O)N[C@H](C(=O)N[C@@H](C)C(=O)N[C@H](C(=O)N[C@@H](CC(C)C)C(=O)NCC(=O)N[C@@H](CCCNC(=N)N)C(=O)N[C@@H](CC(C)C)C(=O)N[C@@H](CO)C(=O)N[C@@H](CCC(N)=O)C(=O)N[C@@H](CCC(=O)O)C(=O)N[C@@H](CC(C)C)C(=O)N[C@@H](Cc1c[nH]cn1)C(=O)N[C@@H](CCC(=O)O)C(=O)N[C@@H](CC(C)C)C(=O)N[C@@H](CCC(N)=O)C(=O)N[C@H](C(=O)N[C@@H](Cc1ccc(O)cc1)C(=O)N1CCC[C@H]1C(=O)N1CCC[C@H]1C(=O)N[C@H](C(=O)N[C@@H](CCC(=O)O)C(=O)N[C@H](C(=O)NCC(=O)N[C@@H](CO)C(=O)N[C@@H](CCC(N)=O)C(=O)N[C@H](C(=O)N[C@@H](Cc1ccc(O)cc1)C(N)=O)[C@@H](C)O)[C@@H](C)O)[C@@H](C)O)[C@@H](C)O)C(C)C)[C@@H](C)O
B6: [N-terminal(C20 diacid-gGlu), des1, 4G, 8L, 9V, 15Q, 21Q, 23Y, 30S, 31Q, 32T, 33Y]mimylin (peptide)
peptide: {C20 diacid-γGlu}-ASGLSTLVLGRLSQELHELQTYPRTETGSQTY-NH2
SMILES: CC(C)C[C@H](NC(=O)CNC(=O)[C@H](CO)NC(=O)[C@H](C)NC(=O)CC[C@H](NC(=O)CCCCCCCCCCCCCCCCCCC(=O)O)C(=O)O)C(=O)N[C@@H](CO)C(=O)N[C@H](C(=O)N[C@@H](CC(C)C)C(=O)N[C@H](C(=O)N[C@@H](CC(C)C)C(=O)NCC(=O)N[C@@H](CCCNC(=N)N)C(=O)N[C@@H](CC(C)C)C(=O)N[C@@H](CO)C(=O)N[C@@H](CCC(N)=O)C(=O)N[C@@H](CCC(=O)O)C(=O)N[C@@H](CC(C)C)C(=O)N[C@@H](Cc1c[nH]cn1)C(=O)N[C@@H](CCC(=O)O)C(=O)N[C@@H](CC(C)C)C(=O)N[C@@H](CCC(N)=O)C(=O)N[C@H](C(=O)N[C@@H](Cc1ccc(O)cc1)C(=O)N1CCC[C@H]1C(=O)N[C@@H](CCCNC(=N)N)C(=O)N[C@H](C(=O)N[C@@H](CCC(=O)O)C(=O)N[C@H](C(=O)NCC(=O)N[C@@H](CO)C(=O)N[C@@H](CCC(N)=O)C(=O)N[C@H](C(=O)N[C@@H](Cc1ccc(O)cc1)C(N)=O)[C@@H](C)O)[C@@H](C)O)[C@@H](C)O)[C@@H](C)O)C(C)C)[C@@H](C)O
B7: [N-terminal(C20 diacid-gGlu), des1, 2L, 4G, 9V, 15Q, 21Q, 23Y, 30S, 31Q, 32T, 33Y]mimylin (peptide)
peptide: {C20 diacid-γGlu}-LSGLSTAVLGRLSQELHELQTYPRTETGSQTY-NH2
SMILES: CC(C)C[C@H](NC(=O)CC[C@H](NC(=O)CCCCCCCCCCCCCCCCCCC(=O)O)C(=O)O)C(=O)N[C@@H](CO)C(=O)NCC(=O)N[C@@H](CC(C)C)C(=O)N[C@@H](CO)C(=O)N[C@H](C(=O)N[C@@H](C)C(=O)N[C@H](C(=O)N[C@@H](CC(C)C)C(=O)NCC(=O)N[C@@H](CCCNC(=N)N)C(=O)N[C@@H](CC(C)C)C(=O)N[C@@H](CO)C(=O)N[C@@H](CCC(N)=O)C(=O)N[C@@H](CCC(=O)O)C(=O)N[C@@H](CC(C)C)C(=O)N[C@@H](Cc1c[nH]cn1)C(=O)N[C@@H](CCC(=O)O)C(=O)N[C@@H](CC(C)C)C(=O)N[C@@H](CCC(N)=O)C(=O)N[C@H](C(=O)N[C@@H](Cc1ccc(O)cc1)C(=O)N1CCC[C@H]1C(=O)N[C@@H](CCCNC(=N)N)C(=O)N[C@H](C(=O)N[C@@H](CCC(=O)O)C(=O)N[C@H](C(=O)NCC(=O)N[C@@H](CO)C(=O)N[C@@H](CCC(N)=O)C(=O)N[C@H](C(=O)N[C@@H](Cc1ccc(O)cc1)C(N)=O)[C@@H](C)O)[C@@H](C)O)[C@@H](C)O)[C@@H](C)O)C(C)C)[C@@H](C)O

molecular target: T1, human amylin 3(a) receptor (human …); experiment: cell-based or functional assay

Row | Binder | hAmylin-R funct. EC50 (pM), tested with HSA [pM]
1 | B1 | 123
2 | B2 | 80
3 | B3 | 77
4 | B4 | 64
5 | {C20 diacid-γGlu}-ASGLSTATLGRLSQELHELQTYPRTETGSGTY-NH2 [[N-terminal(C20 diacid-gGlu), des1, 4G, 9T, 15Q, 21Q, 23Y, 30S, 31G, 32T, 33Y]mimylin] | 122
6 | B5 | 152
7 | B6 | 223
8 | B7 | 140

molecular target: T2, human calcitonin receptor on …; experiment: cell-based or functional assay

Row | Binder | hCTR funct. EC50 (pM), tested with HSA [pM]
9 | B1 | 68
10 | B2 | 38
11 | B3 | 37
12 | B4 | 34
13 | {C20 diacid-γGlu}-ASGLSTATLGRLSQELHELQTYPRTETGSGTY-NH2 [[N-terminal(C20 diacid-gGlu), des1, 4G, 9T, 15Q, 21Q, 23Y, 30S, 31G, 32T, 33Y]mimylin] | 92
14 | B5 | 72
15 | B6 | 142
16 | B7 | 73
